Literature values in publication PMC10003451, “Phosphorylated Peptide Derived from the Myosin Phosphatase Target Subunit Is a Novel Inhibitor of Protein Phosphatase-1” (International Journal of Molecular Sciences, 2023).

B1: His-tagged MYPT1^514−963: C-terminal fragment of a recombinant His-tagged MYPT1 phosphorylated at Thr654 (protein, UniProt O14974 514-963, looked up, fragment)
chain: KENRDSSSLRTSSSYTRRKWEDDLKKNSSVNEGSTYHKSCSFGRRQDDLISSSVPSTTSTPTVTSAAGLQKSLLSSTSTTTKITTGSSSAGTQSSTSNRLWAEDSTEKEKDSVPTAVTIPVAPTVVNAAASTTTLTTTTAGTVSSTTEVRERRRSYLTPVRDEESESQRKARSRQARQSRRSTQGVTLTDLQEAEKTIGRSRSTRTREQENEEKEKEEKEKQDKEKQEEKKESETSREDEYKQKYSRTYDETYQRYRPVSTSSSTTPSSSLSTMSSSLYASSQLNRPNSLVGITSAYSRGITKENEREGEKREEEKEGEDKSQPKSIRERRRPREKRRSTGVSFWTQDSDENEQEQQSDTEEGSNKKETQTDSISRYETSSTSAGDRYDSLLGRSGSYSYLEERKPYSSRLEKDDSTDFKKLYEQILAENEKLKAQLHDTNMELTDLKLQ
modifications: His tag; phosphorylated Thr654
B2: GST-MYPT1^654−880: GST-MYPT1^654−880 fragment phosphorylated at Thr696 (protein, UniProt O14974 654-880, looked up, fragment)
chain: GTVSSTTEVRERRRSYLTPVRDEESESQRKARSRQARQSRRSTQGVTLTDLQEAEKTIGRSRSTRTREQENEEKEKEEKEKQDKEKQEEKKESETSREDEYKQKYSRTYDETYQRYRPVSTSSSTTPSSSLSTMSSSLYASSQLNRPNSLVGITSAYSRGITKENEREGEKREEEKEGEDKSQPKSIRERRRPREKRRSTGVSFWTQDSDENEQEQQSDTEEGSNKK
modifications: GST fusion; phosphorylated Thr696
notes: GST-MYPT1^654−880 fragment phosphorylated at Thr696

Tests used:
PP1c = target: T1, PP1c (Homo sapiens, UniProt P62136); parameters: method as in 2 sources, ref 30 = [30]; PMID 12030846; doi:10.1042/bj20020401; 30. Murányi A. MacDonald J.A. Deng J.T. Wilson D.P. Haystead T.A. Walsh M.P. Erdődi F. Kiss E. Wu Y. Hartshorne D.J. Phosphorylation of the myosin phosphatase target subunit by integrin-linked kinase ||| ref 31 = [31]; PMID 19531490; doi:10.1074/jbc.M109.019729; 31. Khromov A. Choudhury N. Stevenson A.S. Somlyo A.V. Eto M. Phosphorylation-dependent autoinhibition of myosin light chain phosphatase accounts for Ca 2+ sensitization force of smooth muscle contrac
T1 construct: made in house; host or cells: E. coli
T1 sequence (P62136 whole entry): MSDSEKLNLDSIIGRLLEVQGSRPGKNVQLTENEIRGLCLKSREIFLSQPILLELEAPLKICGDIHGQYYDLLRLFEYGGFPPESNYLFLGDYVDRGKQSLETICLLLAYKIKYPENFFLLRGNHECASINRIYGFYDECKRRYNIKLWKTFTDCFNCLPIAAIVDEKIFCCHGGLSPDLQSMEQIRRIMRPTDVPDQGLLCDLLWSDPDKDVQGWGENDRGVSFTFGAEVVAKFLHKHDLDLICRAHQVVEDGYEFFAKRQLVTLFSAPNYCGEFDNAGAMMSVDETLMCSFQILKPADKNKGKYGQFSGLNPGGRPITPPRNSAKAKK

MP holoenzyme = tested on: MP holoenzyme; parameters: method as in PMID 19531490; conditions: phosphorylated at Thr696

Molecule	IC50 (PP1c; phosphorylated at Thr654 (corresponding to Thr696 in the longer MYPT1 isoform), read-out: IC50, inhibition of PP1c (literature)) [nM]	inhibition of MP holoenzyme (literature) (MP holoenzyme)	effect on PP1c (literature) (PP1c; phosphorylated at Thr696)
B1	~100	–	–
B2	–	inhibited MP holoenzyme potently in nanomolar concentrations	without effect on PP1c
